Measurements: publication PMC3267840

How the values were obtained:
Test in all cases: purified protein
CC(=O)NCCc1ccc(O)c(O)c1 = type: biochemical, Tribolium castaneum; conditions: pH 5.5, 0.1 M sodium acetate
[1] = system: NCCC(=O)NCCc1ccc(O)c(O)c1; type: biochemical, Tribolium castaneum; conditions: pH 5.5, 0.1 M sodium acetate
Oc1ccc(O)cc1 = type: biochemical, Tribolium castaneum; conditions: pH 5.5, 0.1 M sodium acetate (pH optimum not determined)
Oc1ccccc1O = type: biochemical, Tribolium castaneum; conditions: pH 5.5, 0.1 M sodium acetate (pH optimum not determined)
NCCc1ccc(O)c(O)c1 = type: biochemical, Tribolium castaneum; conditions: pH 6.0, 0.1 M Mes
purified protein [2] = substrate: Oc1ccc(O)cc1; type: biochemical, Anopheles gambiae; conditions: pH 5.5, 0.1 M sodium acetate (pH optimum not determined)
purified protein [3] = substrate: NCCC(=O)NCCc1ccc(O)c(O)c1; type: biochemical, Anopheles gambiae; conditions: pH 5.5, 0.1 M sodium acetate
purified protein [4] = substrate: CC(=O)NCCc1ccc(O)c(O)c1; type: biochemical, Anopheles gambiae
purified protein [5] = substrate: NCCc1ccc(O)c(O)c1; type: biochemical, Anopheles gambiae
purified protein [6] = substrate: N[C@@H](Cc1ccc(O)c(O)c1)C(=O)O; type: biochemical, Manduca sexta; conditions: pH 6.0, 0.1 M Mes, 0.1 % cetylpyridinium as activator
purified protein [7] = substrate: Oc1ccccc1O; type: biochemical, Anopheles gambiae; conditions: pH 5.5, 0.1 M sodium acetate (pH optimum not determined)
purified protein [8] = substrate: Oc1ccc(O)cc1; type: biochemical, Tribolium castaneum; conditions: pH 5.5, 0.1 M sodium acetate (pH optimum not determined); remark: listed apart in the source
purified protein [9] = substrate: NCCC(=O)NCCc1ccc(O)c(O)c1; type: biochemical, Tribolium castaneum; conditions: pH 5.5, 0.1 M sodium acetate; remark: listed apart in the source
purified protein [10] = substrate: Oc1ccccc1O; type: biochemical, Tribolium castaneum; conditions: pH 5.5, 0.1 M sodium acetate (pH optimum not determined); remark: listed apart in the source
purified protein [11] = substrate: CC(=O)NCCc1ccc(O)c(O)c1; type: biochemical, Tribolium castaneum; conditions: pH 5.5, 0.1 M sodium acetate; remark: listed apart in the source
purified protein [12] = substrate: NCCc1ccc(O)c(O)c1; type: biochemical, Tribolium castaneum; conditions: pH 5.5, 0.1 M sodium acetate

Work on “TcLac2B (Tribolium castaneum; G182D/T93A)” yielded a Km (CC(=O)NCCc1ccc(O)c(O)c1) of 600 µM, a kcat (CC(=O)NCCc1ccc(O)c(O)c1) of 5.5 s⁻¹ and a kcat/Km (CC(=O)NCCc1ccc(O)c(O)c1) of 9170 M⁻¹ s⁻¹. The Km [1] was 4000 µM, the kcat [1] was 18.8 s⁻¹ and the kcat/Km [1] was 4700 M⁻¹ s⁻¹. The Km (Oc1ccc(O)cc1) was 2000 µM, the kcat (Oc1ccc(O)cc1) was 9.2 s⁻¹ and the kcat/Km (Oc1ccc(O)cc1) was 4600 M⁻¹ s⁻¹. The Km (Oc1ccccc1O) was 12000 µM, the kcat (Oc1ccccc1O) was 10.8 s⁻¹ and the kcat/Km (Oc1ccccc1O) was 900 M⁻¹ s⁻¹. For the same molecule, the Km (NCCc1ccc(O)c(O)c1) was 2000 µM, the kcat (NCCc1ccc(O)c(O)c1) was 7.5 s⁻¹ and the kcat/Km (NCCc1ccc(O)c(O)c1) was 3750 M⁻¹ s⁻¹.

B1: AgMCO2A (Anopheles gambiae) (protein)
chain: VRVQQHTSRRFKDESFGHDQTPAGSWWSSHLTEPPSNFYQATHGLLQTHPSVPSLKPVAGAPAAPGPSALPLSSRKSPTVSSAAALNSGFPSIANPNPRSPFRHLDFSTSATAELRRNPSLSAPDECARACREGEPPRICYYHFTVEYYTVLGAACQVCTPNATNTVWSHCQCVLADGVERGILTVNRMIPGPSIQVCENDRVVIDVENHMEGMELTIHWHGIWQRGTQYYDGVPFVTQCPIQQGNTFRYQWTGNAGTHFWHAHTGLQKLDGLYGSIVVRQPPSRDPNSHLYDFDLTTHIMLVSDWLHEDAAERYPGRLAVNTGQDPESLLINGKGQFRDPNTGFMTNTPLEIFTITPGRRYRFRMINAFASVCPAQVTIEGHALTVIATDGEPVHPAQVNTIISFSGERYDFVITADQPVGAYWIQLRGLGECGIKRAQQLAILRYARGPYQPASPPPTYDVGLPQGVVMNPLDAQCNVQRDDAICVSQLKNAKEIDRALLQDKPDVKIFLPFRFYLYRPEELFQPNTYNRFLVAPTGDHVISLIDEISYLSAPAPLLSQYDDINPEQFCNGDNRPADCGANCMCTHKVDIPLNAIVEVVLVDEVQQPNLSHPFHLHGYAYNVVGIGRSPDSNVKKINLKHALDLDRRGLLHRQYNLPPLKDTIAVPNNGYVVLRFRADNPGFWLFHCHFLFHIVIGMNLILQVGTHADLPPVPPNFPTCGDHLPPIN
With B1 the Km (purified protein [2]) was 2000 µM, the kcat (purified protein [2]) was 3.82 s⁻¹ and the kcat/Km (purified protein [2]) was 1900 M⁻¹ s⁻¹. It also gave a Km (purified protein [3]) of 1000 µM, a kcat (purified protein [3]) of 3.65 s⁻¹ and a kcat/Km (purified protein [3]) of 3650 M⁻¹ s⁻¹. For the same molecule, the Km (purified protein [4]; pH 5.5, 0.1 M sodium acetate) was 300 µM, the kcat (purified protein [4]; pH 5.5, 0.1 M sodium acetate) was 1.53 s⁻¹ and the kcat/Km (purified protein [4]; pH 5.5, 0.1 M sodium acetate) was 5120 M⁻¹ s⁻¹. It also gave a Km (purified protein [5]; pH 7.5, 0.1 M sodium phosphate) of 500 µM, a kcat (purified protein [5]; pH 7.5, 0.1 M sodium phosphate) of 0.8 s⁻¹ and a kcat/Km (purified protein [5]; pH 7.5, 0.1 M sodium phosphate) of 1600 M⁻¹ s⁻¹.

B2: phenoloxidase (prophenoloxidase from M. sexta hemolymph) (Manduca sexta) (protein)
chain 1: TDAKNNLLYFFDRPNEPCFMQKGEDKVVFEIPDHYYPDKYKSLSNTLSNRFGNEATKRIPIRNITLPNLEVPMQLPYNDQFSLFVPKHRTMAAKLIDIFMGMRDVEDLQSVCSYCQLRINPYMFNYCLSVAILHRPDTKGLSIPTFAETFPDKFMDSKVFLRAREVSNVVISGSRMPVNVPINYTANTTEPEQRVAYFREDIGINLHHWHWHLVYPFDSADRSIVNKDRRGELFYYMHQQIIGRYNVERMCNGLPQVKPFSDFSAPIEEGYFPKLDSQVASRTWPPRFAGSVFRNLDRTVDQVKIDVRKLFTWRDQFLEAIQKMAIKMPNGRELPLDEVTGIDMLGNLMESSIISPNRGYYGDLHNMGHVFAAYTHDPDHRHLEQFGVMGDSATAMRDPFFYRWHRFVDDVFNIYKEKLTPYTNERLDFPGVRVSSVGIEGARPNTLRTLWQQSTVELGRGLDFTPRGSVLARFTHLQHDEFQYVIEVNNTTGGNLMGTVRIFMAPKVDDNGQPMSFNKQRRLMIELDKFSQALRPGTNTIRRRSVDSSVTIPYERTFRNQSERPGDPGTAGAAEFDFCGCGWPHHMLIPKGTAQGYPVVLFVMISNWNNDRIEQDLVGSCNDAASYCGIRDRKYPDKQAMGYPFDRKMANDAATLSDFLRPNMAVRDCSIQFSDTTVERGQQG
chain 2: ADIFDSFELLYDRPGEPMINTKGEDKVLFELTEQFLTPEYANNGLELNNRFGDEEEVSRKIILKNLDKIPEFPKAKQLPNDADFSLFLPSHQEMANEVIDVLMSVTENQLQELLSTCVYARINLNPQLFNYCYTVAIMHRRDTGKVRVQNYAEIFPAKFLDSQVFTQAREAAAVIPKTIPRTPIIIPRDYTATDLEEEHRLAYWREDLGINLHHWHWHLVYPFSASDEKIVAKDRRGELFFYMHQQIIARYNCERLCNSLKRVKKFSDWREPIPEAYYPKLDSLTSARGWPPRQAGMRWQDLKRPVDGLNVTIDDMERYRRNIEEAIATGNVILPDKSTKKLDIDMLGNMMEASVLSPNRDLYGSIHNNMHSFSAYMHDPEHRYLESFGVIADEATTMRDPFFYRVHAWVDDIFQSFKEAPHNVRPYSRSQLENPGVQVTSVAVESAGGQQNVLNTFWMQSDVNLSKGLDFSDRGPVYARFTHLNHRPFRYVIKANNTASARRTTVRIFIAPKTDERNLPWALSDQRKMFIEMDRFVVPLSAGENTITRQSTESSLTIPFEQTFRDLSIQGSDPRRSELAAFNYCGCGWPQHMLVPKGTVGGVAYQLFVMLSNYELDKIEQPDGRELSCVEASMFCGLKDKKYPDARPMGYPFDRPSNSATNIEDFSAMSNMGLQDIVIKLSDVTEPNPRNPPA
With B2 the Km (purified protein [6]) was 2000 µM and the kcat (purified protein [6]) was 6.02 s⁻¹.

B3: AgMCO2B (Anopheles gambiae) (protein)
chain: VRVQQHTSRRFKDESFGHDQTPAGSWWSSHLTEPPSNFYQATHGLLQTHPSVPSLKPVAGAPAAPGPSALPLSSRKSPTVSSAAALNSGFPSIANPNPRSPFRHLDFSTSATAELRRNPSLSAPDECARACREGEPPRICYYHFTVEYYTVLGAACQVCTPNATNTVWSHCQCVLADGVERGILTVNRMIPGPSIQVCENDRVVIDVENHMEGMELTIHWHGIWQRGTQYYDGVPFVTQCPIQQGNTFRYQWTGNAGTHFWHAHTGLQKLDGLYGSIVVRQPPSRDPNSHLYDFDLTTHIMLVSDWLHEDAAERYPGRLAVNTGQDPESLLINGKGQFRDPNTGFMTNTPLEIFTITPGRRYRFRMINAFASVCPAQVTIEGHALTVIATDGEPVHPVQVNTIISFSGERYDFVITADQPVGAYWIQLRGLGECGIKRAQQLAILRYARGPYQPASPPPTYDVGLPQGVVMNPLDAVCNVPRPDAVCVSNLRNAKKADKAVLSERPDVKIFLPFRFYFYRVEELFTPNTYNKFLVAPGGDHLISLIDEISYVSPPSPMLSQINDIPPEQFCNGDNRPPDCGPNCMCTHKVDIPLNAIVEVVLVDEVQQENLSHPFHLHGHAFHVIGMGRSPDSTVKKINLRHTLDLDRRGLLNRQFNLPPLKDTIAVPNNGYVVLRFRADNPGYWLFHCHFQFHIVIGMNLVVHIGTHADLPPVPPNFPRCGNHIPPIKYN
With B3 the Km (purified protein [2]) was 800 µM, the kcat (purified protein [2]) was 4.2 s⁻¹ and the kcat/Km (purified protein [2]) was 5250 M⁻¹ s⁻¹. For the same molecule, the Km (purified protein [3]) was 2000 µM, the kcat (purified protein [3]) was 6.35 s⁻¹ and the kcat/Km (purified protein [3]) was 3170 M⁻¹ s⁻¹. For the same molecule, the Km (purified protein [7]) was 4000 µM, the kcat (purified protein [7]) was 2.98 s⁻¹ and the kcat/Km (purified protein [7]) was 750 M⁻¹ s⁻¹. For the same molecule, the Km (purified protein [4]; pH 5.0, 0.1 M sodium acetate) was 700 µM, the kcat (purified protein [4]; pH 5.0, 0.1 M sodium acetate) was 2.12 s⁻¹ and the kcat/Km (purified protein [4]; pH 5.0, 0.1 M sodium acetate) was 3020 M⁻¹ s⁻¹. The Km (purified protein [5]; pH 5.5, 0.1 M sodium acetate) was 300 µM, the kcat (purified protein [5]; pH 5.5, 0.1 M sodium acetate) was 1.05 s⁻¹ and the kcat/Km (purified protein [5]; pH 5.5, 0.1 M sodium acetate) was 3500 M⁻¹ s⁻¹.

B4: TcLac2A (Tribolium castaneum) (protein)
chain: VRAPGAKKKVGPIDQSAAAASWHDFDNSDFFQSEHAVIQTHPSIGGGPRFSSGGGRKAWKHLDFRNSAAAELLKNPSLSSPDECARACREGEPPRICYYHFTLELYTVLGAACQVCTPNATNTVWSHCQCVLADGVERGILTANRMIPGPSIQVCEGDKVVIDVENHIEGNEVTLHWHGVWQRGSQYYDGVPFVTQCPIQQGNTFRYQWIAGNAGTHFWHAHTGLQKMDGLYGSVVIRQPPAKDPNSHLYDYDLTTHVMLLSDWMHEDATERFPGRLAVNTGQDPESLLINGKGQFRDPNTGFMTNTPLEVFTITPGRRYRFRMINSFASVCPAQLTIQGHDLTLIATDGEPVHPVRVNTIISFSGERYDFVINADQTPGAYWIQLRGLGECGIRRVQQLGILRYAKGPYQPSQAPPTYDYGIPQGVVLNPLDARCNEIRPDAICVSQLKNALSIDKGILREKPDVKIFLPFRFHIYTPEDLFAPNTYNRHLVAPNGDHVISLIDEISYMAPPAPLISQYDDIDPQQFCNGDNRPADCQQNCMCTHKVDIPLNAIVEIVLVDEVQQPNLSHPFHLHGYAFNVIGIGRSPDQNVKKINLKHALDLDRQGLLHRQFNLPPAKDTIAVPNNGYVVLRLRANNPGFWLFHCHFLFHIVIGMNLVLQVGTHADLPPVPPNFPTCGDHVPEINSNPNLV
B4 was tested, and the Km (purified protein [8]) was 1000 µM, the kcat (purified protein [8]) was 3.55 s⁻¹ and the kcat/Km (purified protein [8]) was 3550 M⁻¹ s⁻¹. The Km (purified protein [9]) was 1000 µM, the kcat (purified protein [9]) was 2.75 s⁻¹ and the kcat/Km (purified protein [9]) was 2750 M⁻¹ s⁻¹. It also gave a Km (purified protein [10]) of 6000 µM, a kcat (purified protein [10]) of 4.03 s⁻¹ and a kcat/Km (purified protein [10]) of 667 M⁻¹ s⁻¹. It also gave a Km (purified protein [11]) of 700 µM, a kcat (purified protein [11]) of 2.45 s⁻¹ and a kcat/Km (purified protein [11]) of 3500 M⁻¹ s⁻¹. For the same molecule, the Km (purified protein [12]) was 800 µM, the kcat (purified protein [12]) was 0.683 s⁻¹ and the kcat/Km (purified protein [12]) was 850 M⁻¹ s⁻¹.
